Where no end group is shown, it is not given here.
B1: Phage-1880 (peptide)
peptide: VLMLCKPAWMCMGF
notes: tested as crude clonal phage supernatant
B2: Phage-1887 (peptide)
peptide: LDHWCFPMWMCTGF
notes: as for B1
B3: Phage-1886 (peptide)
peptide: WEKWCIPAWMCVAD
notes: as for B1
B4: Phage-1881 (peptide)
peptide: LEKWCTPAWMCEML
notes: as for B1
B5: Phage-1877 (peptide)
peptide: IERWCIPDWMCHVW
notes: as for B1
B6: Phage-1878 (peptide)
peptide: VEILCKPKWMCEFW
notes: as for B1
B7: Phage-1889 (peptide)
peptide: DVMWCKPSWMCDWL
notes: as for B1
B8: Phage-1884 (peptide)
peptide: MVMRCQPEWMCTGI
notes: as for B1
B9: Phage-1890 (peptide)
peptide: AIKWCIPSWMCVED
notes: tested as crude clonal phage supernatant; also called AIKWCIPSWMCVED
B10: Phage-1888 (peptide)
peptide: WSNWCTPEWMCVGF
notes: as for B1
B11: Phage-1883 (peptide)
peptide: VNKLCTPEWMCVGM
notes: as for B1
B12: Phage-1879 (peptide)
peptide: SLHWCIPAWMCDFV
notes: as for B1
B13: Phage-1885 (peptide)
peptide: FAKWCIPEWMCSVS
notes: as for B1
B14: Phage-1882 (peptide)
peptide: VTPWCTPSWMCFGF
notes: as for B1
B15: Phage-1876 (peptide)
peptide: VVKLCIPEWMCAEW
modifications: cysteine pairing not given here; also: displayed on phage as pIII fusion, pIII sequence and linker not given here
notes: as for B1
B16: Phage-1901 (peptide)
peptide: TDMWCTPMWMCMGF
modifications: cysteine pairing not given here; also: displayed as fusion to phage pIII
notes: Peptide-180 library clone, tested as clonal phage supernatant; not shown: pIII of the bacteriophage to which the peptide is fused
B17: Phage-1893 (peptide)
peptide: FDKWCIPPWMCQAL
modifications: cysteine pairing not given here; also: fused to phage pIII, sequence and linker not given here
notes: as for B16
B18: Phage-1899 (peptide)
peptide: SVKMCTPAWMCSGF
modifications: cysteine pairing not given here; also: fused to phage pIII, sequence and linker not given here
notes: as for B16
B19: Phage-1898 (peptide)
peptide: AEKWCFPAWMCERP
modifications: cysteine pairing not given here; also: fused to phage pIII, sequence and linker not given here
notes: as for B16
B20: Phage-1895 (peptide)
peptide: WEKMCVPSWMCHFS
modifications: cysteine pairing not given here; also: fused to phage pIII, sequence and linker not given here
notes: as for B16
B21: Phage-1896 (peptide)
peptide: VLKWCTPAWMCEIF
modifications: cysteine pairing not given here; also: fused to phage pIII, sequence and linker not given here
notes: as for B16
B22: Phage-1897 (peptide)
peptide: MEKLCIPAWMCDGM
modifications: cysteine pairing not given here; also: fused to phage pIII, sequence and linker not given here
notes: as for B16
B23: Phage-1894 (peptide)
peptide: FEKWCTPAWMCAGW
modifications: cysteine pairing not given here; also: fused to phage pIII, sequence and linker not given here
notes: as for B16
B24: Phage-1891 (peptide)
peptide: LEKWCIPAWMCEWS
modifications: cysteine pairing not given here; also: fused to phage pIII, sequence and linker not given here
notes: as for B16
B25: Phage-1900 (peptide)
peptide: VSRLCIPTWMCDYS
modifications: cysteine pairing not given here; also: displayed as fusion to phage pIII
notes: as for B16
B26: Phage-1892 (peptide)
peptide: VPKLCTPVWMCTGF
modifications: cysteine pairing not given here; also: fused to phage pIII, sequence and linker not given here
notes: as for B16

What follows are binders tested against T1, Anti-PSMA Fab (SEQ ID NOs: 19, 20) (assay: phage binding ELISA; biotinylated PSMA Fab on neutravidin plate, clonal phage supernatant, anti-M13 HRP detection;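 note: wells were preincubated with blocking buffer either containing PSMA antigen or without it before crude phage supernatant was added, briefly incubated, then washed prior to detection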).
T1 construct: In the panning ELISA the Fab was biotinylated and captured on neutravidin coated plates; also called 006 PSMA Fab
Description: (§1) Clonal phage were harvested as crude supernatants and screened via standard ELISAs. […] Prior to the addition of clonal phage. wells were incubated with blocking buffer and PSMA antigen or blocking buffer alone. Without washing or aspirating, clonal phage supernatants were then added to the wells and incubated for a short time. Wells were then washed followed by detection of bound phage using a horse radish conjugated anti-M13 antibody.

Binder | Anti-PSMA Fab (SEQ ID NOs: 19, 20) signal
B1 | 2.07
B2 | 2.05
B3 | 2.05
B4 | 2.06
B5 | 2.08
B6 | 2.07
B7 | 2.04
B8 | 2.06
B9 | 2.04
B10 | 2.05
B11 | 2.06
B12 | 2.07
B13 | 2.06
B14 | 2.06
B15 | 2.08

What follows are binders tested against T2, Anti-PSMA Fab (SEQ ID NOs: 19, 20) (assay: phage binding ELISA; biotinylated PSMA Fab on neutravidin plate, bound phage detected with anti-M13 HRP).
T2 construct: Biotinylated and captured on neutravidin coated plates in the phage ELISA; also called 006 PSMA Fab
Description: as §1

Binder | Anti-PSMA Fab (SEQ ID NOs: 19, 20) signal
B16 | 2.03
B17 | 2.04
B18 | 2.03
B19 | 2.03
B20 | 2.03
B21 | 2.03
B22 | 2.03
B23 | 2.04
B24 | 2.04
B25 | 2.03
B26 | 2.04

What follows are binders tested against T1, Anti-PSMA Fab (SEQ ID NOs: 19, 20) (assay: phage binding ELISA; biotinylated PSMA Fab on neutravidin plate pre-incubated with PSMA antigen (competitor), anti-M13 HRP detection;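 note: competition ELISA where clonal phage supernatants were added to wells preincubated with PSMA antigen or with blocking buffer only as control, bound phage read via HRP-coupled anti-M13 antibody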).
Description: as §1

Binder | Anti-PSMA Fab signal in the presence of PSMA
B1 | 0.375
B2 | 0.233
B3 | 0.134
B4 | 0.0814
B5 | 0.126
B6 | 0.109
B7 | 0.127
B8 | 0.122
B9 | 0.0876
B10 | 0.0814
B11 | 0.0609
B12 | 0.185
B13 | 0.119
B14 | 0.072
B15 | 0.115

Each binder was assayed against T2, Anti-PSMA Fab (SEQ ID NOs: 19, 20) (assay: phage binding ELISA on captured PSMA Fab; competitor PSMA antigen pre-incubated in the well).
Description: as §1

Binder | Anti-PSMA Fab signal in the presence of PSMA
B16 | 0.0829
B17 | 0.112
B18 | 0.0752
B19 | 0.0803
B20 | 0.0735
B21 | 0.141
B22 | 0.279
B23 | 0.0792
B24 | 0.113
B25 | 0.0757
B26 | 0.0783

From patent US20260242478A1 (published 2026)
